In US20250019453A1 (SYNTHEKINE, published 2025):
Where a chain is given by its changes, count along the chain named.

T1: hIL2Rb-his (human, UniProt P14784 27-240)
T1 sequence: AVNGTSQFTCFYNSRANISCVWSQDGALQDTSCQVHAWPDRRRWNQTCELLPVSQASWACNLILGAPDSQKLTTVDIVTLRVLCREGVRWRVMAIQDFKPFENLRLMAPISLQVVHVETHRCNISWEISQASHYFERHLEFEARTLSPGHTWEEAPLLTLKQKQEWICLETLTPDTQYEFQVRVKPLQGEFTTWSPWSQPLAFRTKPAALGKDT

T2: mIL2Rg ECD antigen (murine, UniProt P34902 23-263)
T2 construct: The immunogen was the ECD fused to human IgG1 hinge and Fc; also called ECD of IL2Rg (mouse)
T2 sequence: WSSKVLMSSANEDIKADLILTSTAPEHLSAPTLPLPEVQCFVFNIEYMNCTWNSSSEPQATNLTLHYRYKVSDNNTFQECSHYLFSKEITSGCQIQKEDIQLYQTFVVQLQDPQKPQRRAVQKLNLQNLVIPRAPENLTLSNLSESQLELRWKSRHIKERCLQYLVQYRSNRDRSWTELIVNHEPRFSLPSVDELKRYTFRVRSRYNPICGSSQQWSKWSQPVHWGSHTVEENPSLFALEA

T3: hIL2Rg ECD antigen (human, UniProt P31785 23-262)
T3 construct: The immunogen was the ECD fused to human IgG1 hinge and Fc; also called ECD of IL2Rg (human); human IL-2Rγ
T3 sequence: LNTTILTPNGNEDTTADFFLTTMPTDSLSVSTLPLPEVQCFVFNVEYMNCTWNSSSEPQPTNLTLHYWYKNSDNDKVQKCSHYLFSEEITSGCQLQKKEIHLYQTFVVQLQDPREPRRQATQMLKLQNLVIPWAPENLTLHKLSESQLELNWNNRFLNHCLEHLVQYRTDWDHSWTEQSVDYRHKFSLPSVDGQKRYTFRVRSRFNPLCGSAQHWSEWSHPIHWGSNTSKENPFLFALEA

B1: hIL2Rb_VHH3 Mono-Fc VHH (Fc fusion, not shown: a dimerising Fc or GST)
chain: QVQLQESGGGLVQPGGSLKLSCAASGFRFSNYGMSWVRQAPGEGLEWVSYINGDGSRTHYADSVKGRFTISRDNAKNTLYLQLNSLKTEDTAMYYCEKGLSRDGWSLSAASRGQGTQVTVSS
B2: hIL2Rb_VHH8 Mono-Fc VHH (Fc fusion, not shown: a dimerising Fc or GST)
chain: QVQLQESGGGSVQVGGSLKLSCAASGYTYSSYYCMGWFRQAPGKEREGVAAIDSDGSTSYADSVKGRFTISQDDAKNTLYLQMNSLKPEDTAMYYCAASYEVVDCYPSGYGQDYWGKGTQVTVSS
B3: hIL2Rb_VHH1 Mono-Fc VHH (Fc fusion, not shown: a dimerising Fc or GST)
chain: QVQLQESGGGSVQAGGSLRLSCVGSGYTYDTSDMSWYRQAPGKEREFVSDIDSGDWAAYADAVKGRFTISRDNAKKTVYLQMNSLEPEDTAMYYCKASYWKWGKLNNFWGPGTQVTVSS
B4: hIL2Rb_VHH4 Mono-Fc VHH (Fc fusion, not shown: a dimerising Fc or GST)
chain: QVQLQESGGGSVQTGGSLRLSCAVSGYTTYSFNYMGWFRQAPGKEREGVAVIYTGGGSTLYADSVKGRFTISQDNAKNTVYLQMNSLKPEDTAMYYCAADDQRFASPLYAYFGYWGQGTQVTVSS
B5: hIL2Rb_VHH2 Mono-Fc VHH (Fc fusion, not shown: a dimerising Fc or GST)
chain: QVQLQESGGGLVQPGGSLRLSCVASGFTFSNYWIFWVRQAAGKGLEWLSTSNTGGDTTKYADSVKGRFTISRDSAKNTEYLQMNSLKPEDTAVYYCETGRCARSGGYQGTQVTVSS
B6: mIL2Rg_VHH4 (VHH)
VHH: QVQLQESGGGSVQAGGSLRLSCIGSGLPFDEDDMGWYRQAPGNECELVSSISSDGTAYYADSVKGRFTISRDNAKNTVLLQMNSLKPEDTAVYYCAAGVHRQFGGSSSCGDAFYGMDYWGKGTQVTVSS
notes: As a his-tagged phage clone periplasmic extract
B7: mIL2Rg_VHH6 (VHH)
VHH: QVQLQESGGGSVQAGGSLRLSCATSGFPYSRYCMGWFRQAPGKEREGVAAIEPDGSTSYADSVKGRFTISQDNAVNTLYLQMNNLKPEDTAMYYCAADERCFYLKDYDLRRPAQYRYWGQGTQVTVSS
notes: as for B6
B8: mIL2Rg_VHH12 (VHH)
VHH: QVQLQESGGGSVLAGGSLRLSCVASGYGYNYIGWFRQTPGKEREGVAVIYIGGGDTYYADSVKGRFTASRDNAKSTLYLQMNSLEPEDTAMYYCVARYCVGSVYACLRGGHDEYAHWGQGTQVTVSS
notes: as for B6
B9: mIL2Rg_VHH13 (VHH)
VHH: B8 VHH with I51T
notes: as for B6
B10: mIL2Rg_VHH9 (VHH)
VHH: QVQLQESGGGSVQAGGSLRLSCAASGFTFDDFDMGWYRQAPGNECELVSTISDDGSTYYADSVKGRSSISRDNAKNTVYLQMNSLKPEDTAVYYCAAEGALGSKTNCGWVGNFGYWGQGTQVTVSS
notes: as for B6
B11: mIL2Rg_VHH8 (VHH)
VHH: B10 VHH with A23T, S84R, A91G
notes: as for B6
B12: mIL2Rg_VHH15 (VHH)
VHH: B10 VHH with A23T, S84R, A91G, T105M
notes: as for B6
B13: mIL2Rg_VHH14 (VHH)
VHH: B10 VHH with D61N, T77M
notes: as for B6
B14: mIL2Rg_VHH11 (VHH)
VHH: B10 VHH with S11L, A14P, R19K, D30S, F32R, L47R
notes: as for B6
B15: mIL2Rg_VHH10 (VHH)
VHH: B10 VHH with S11L, A14P, N76S, S84R, A91G
notes: as for B6
B16: mIL2Rg_VHH5 (VHH)
VHH: QVQLQESGGGSVQAGGSLRLSCVASGDVYGRNSMAWFRQAPGKEREGVAVGYSVVTTTYYADSVKGRFTISEDNDKNTVYLEMNSLKPEDTAMYYCAADGNLWRGLRPSEYTYWGQGTQVTVSS
notes: as for B6
B17: mIL2Rg_VHH3 (VHH)
VHH: QVQLQESGGGSVQAGASLRLSCSVSGFTFDESVMSWLRQGPGNECDAVAIISSDDNTYYDDSVKGRFTISEDNAKNMVYLQMNSLKPEDTAVYYCAARRRRPVYDSDYELRPRPLCGDFGVWGQGTQVTVSS
notes: as for B6
B18: mIL2Rg_VHH2 (VHH)
VHH: QVQLQESGGGSVQPGGSLRLSCAASGSTYANYLMGWFRQAPGKEREGVAAIYSGGGSTYYADSVKGRFTISQDNAKNTLYLQMNSLKPEDTAMYYCAAASAVKGDKGDIVVVVTGTQRMEYDYWGHGTQVTVSS
notes: as for B6
B19: mIL2Rg_VHH7 (VHH)
VHH: QVQLQESGGGLVQPGGSLRLSCTVSGFTFDESDMGWLRQNPGNECGVVSVITSDDNPYYDDSVKGRFTISEDNAKNMVYLQMNSLKPEDTGVYYCATRSRQPVYSRDYELRPRPLCGDFGVWGQGTQVTVSS
notes: as for B6
B20: hIL2Rg_VHH-9 (VHH)
VHH: QVQLQESGGGSVQAGGSLRLSCTASGFTFDDSDMGWYRQAPGGECELVTISSDGSTYYADSVKGRFTISQDNAKNTVYLQMNSLKPEDTAVYYCAAEPRGYYSNYGGRRECNYWGQGTQVTVSS
notes: as for B6
B21: hIL2Rg_VHH-14 (VHH)
VHH: B20 VHH with R19K, A24V, F29A, A40G, G43N
notes: as for B6
B22: hIL2Rg_VHH-4 (VHH)
VHH: QVQLQESGGGSVQAGGSLRLSCTASGFTFDDSDMGWYRQAPGNECELVSTISSDGNTYYTDSVKGRFTISQDNAKNTVYLQMNSLGPEDTAVYYCAAEPRGYYSNYGGRRECNYWGQGTQVTVSS
notes: as for B6
B23: hIL2Rg_VHH-13 (VHH)
VHH: B22 VHH with G26R, T28I, N56S, T60A, Q71R, G86K
notes: as for B6
B24: hIL2Rg_VHH-10 (VHH)
VHH: QVQLQESGGGSVQAGGSLRLSCAASGSIYSSAYIGWFRQAPGKKREGVAGIYTRDGSTAYADSVKGRFTISQDSAKKTVYLQMNSLKPEDTAMYYCAAGRRTKSYVYIFRPEEYNYWGQGTQVTVSS
notes: as for B6
B25: hIL2Rg_VHH-17 (VHH)
VHH: QVQLQESGGGLVQPGGSLRLSCAASGFTFSNAHMSWVRQAPGKGREWISSIYSGGSTWYADSVKGRFTISRDNSKNTLYLQLNSLKTEDTAMYYCAENRLHYYSDDDSLRGQGTQVTVSS
notes: as for B6
B26: hIL2Rg_VHH-12 (VHH)
VHH: B25 VHH with L11S, P14A
notes: as for B6
B27: hIL2Rg_VHH-6 (VHH)
VHH: B25 VHH with L11A, P14A
notes: as for B6
B28: hIL2Rg_VHH-16 (VHH)
VHH: B25 VHH with A23V
notes: as for B6
B29: hIL2Rg_VHH-11 (VHH)
VHH: B25 VHH with L11S, P14A, N31S, S49A, S56G, W58F, S74A, E97T
notes: as for B6

The binders below were run against T1, hIL2Rb-his (assay: SPR; ratio of experimental to calculated Rmax).
Description: (§1) A representative example from each hIL2Rb VHH clonotype generated as descried above was selected for evaluation of binding via SPR as follows. Evaluation of binding affinity of the hIL2Rb binding molecules shown in Table 16 was conducted using surface plasmon resonance (SPR) in substantial accordance with the following procedure. All experiments were conducted in 10 mM Hepes, 150 mM NaCl, 0.05% (v/v) Polysorbate 20 (PS20) and 3 mM EDTA (HBS-EP+ buffer) on a Biacore T200 instrument equipped with a Protein A derivatized sensor chip (Cytiva). Mono-Fc VHH ligands were flowed at 5 μl/min for variable time ranging from 18 to 300 seconds, reaching the capture loads listed in the tables below. Following ligand capture, injections of a 2-fold dilution series of the extracellular domain of the IL2Rb-receptor modified to incorporate a C-terminal poly-His sequence, typically comprising at least five concentrations between 1 μM and 1 nM, were performed in either high performance or single cycle kinetics mode. Surface regeneration was achieved by flowing 10 mM glycine-HCl, pH 1.5 (60 seconds, […]). Buffer-subtracted sensograms were processed with Biacore T200 Evaluation Software and globally fit with a 1:1 Langmuir binding model (bulk shift set to zero) to extract kinetics and affinity constants (kₐ, kd, KD). RMAX<100 RU indicates surface density compatible with kinetics analysis. Calculated Rₘₐₓ values were generated using the equation: Rmax=Load (RU)×valency of ligand×(Molecular weight of analyte/Molecular weight of ligand). Surface activity was defined as the ratio of experimental/calculated Rmax.

| Binder | Surface Activity [%] |
| --- | --- |
| B1 | 52 |
| B2 | < 5 |
| B3 | 37 |
| B4 | 96 |
| B5 | 26 |

What follows are binders tested against T2, mIL2Rg ECD antigen (assay: PE-ELISA of phage clones).

| Binder | binding result |
| --- | --- |
| B6 | binds |
| B7 | binds |
| B8 | binds |
| B9 | binds |
| B10 | binds |
| B11 | binds |
| B12 | binds |
| B13 | binds |
| B14 | binds |
| B15 | binds |
| B16 | binds |
| B17 | binds |
| B18 | binds |
| B19 | binds |

These binders were tested against T3, hIL2Rg ECD antigen (assay: PE-ELISA of phage clones).

| Binder | binding result |
| --- | --- |
| B20 | binds |
| B21 | binds |
| B22 | binds |
| B23 | binds |
| B24 | binds |
| B25 | binds |
| B26 | binds |
| B27 | binds |
| B28 | binds |
| B29 | binds |

Each binder was assayed against T1, hIL2Rb-his (assay: SPR Biacore T200; Mono-Fc VHH captured on Protein A chip, hIL2Rb-his analyte; 1:1 Langmuir fit).
Description: as §1

| Binder | Kd [nM] | koff [s⁻¹] | kon [M⁻¹ s⁻¹] |
| --- | --- | --- | --- |
| B1 | 47 | 0.00699 | 157000 |
| B3 | 1 | 0.0199 | 1.98e+07 |
| B4 | 3.4 | 0.00205 | 600000 |
| B5 | 16 | 0.00224 | 139000 |
